Experimental data taken from article PMC2822935, “A novel fragment derived from the β chain of human fibrinogen, β43–63, is a potent inhibitor of activated endothelial cells in vitro and in vivo” (British Journal of Cancer, 2010).

Molecular target: T1, recombinant human αvβ3 (human, UniProt P06756 31-992; P05106 27-718)
T1 construct: integrin αv, human; integrin β3, human; also called soluble αvβ3; recombinant αvβ3; source: bought: Calbiochem (Merck)
Assay: ELISA; solid-phase direct binding assay: 96-well plates coated overnight with 10 μg/ml β43–63 or 0.5 μg/ml vitronectin, blocked with 5% BSA in PBS; recombinant αvβ3 incubated 1.5 h; detected with anti-αvβ3 antibody, anti-mouse-HRP and OPD, read at 450 nm; nonspecific binding to plastic subtracted
Conditions: both partners purified

T1 sequence (P06756 31-992, chain 1 of 2): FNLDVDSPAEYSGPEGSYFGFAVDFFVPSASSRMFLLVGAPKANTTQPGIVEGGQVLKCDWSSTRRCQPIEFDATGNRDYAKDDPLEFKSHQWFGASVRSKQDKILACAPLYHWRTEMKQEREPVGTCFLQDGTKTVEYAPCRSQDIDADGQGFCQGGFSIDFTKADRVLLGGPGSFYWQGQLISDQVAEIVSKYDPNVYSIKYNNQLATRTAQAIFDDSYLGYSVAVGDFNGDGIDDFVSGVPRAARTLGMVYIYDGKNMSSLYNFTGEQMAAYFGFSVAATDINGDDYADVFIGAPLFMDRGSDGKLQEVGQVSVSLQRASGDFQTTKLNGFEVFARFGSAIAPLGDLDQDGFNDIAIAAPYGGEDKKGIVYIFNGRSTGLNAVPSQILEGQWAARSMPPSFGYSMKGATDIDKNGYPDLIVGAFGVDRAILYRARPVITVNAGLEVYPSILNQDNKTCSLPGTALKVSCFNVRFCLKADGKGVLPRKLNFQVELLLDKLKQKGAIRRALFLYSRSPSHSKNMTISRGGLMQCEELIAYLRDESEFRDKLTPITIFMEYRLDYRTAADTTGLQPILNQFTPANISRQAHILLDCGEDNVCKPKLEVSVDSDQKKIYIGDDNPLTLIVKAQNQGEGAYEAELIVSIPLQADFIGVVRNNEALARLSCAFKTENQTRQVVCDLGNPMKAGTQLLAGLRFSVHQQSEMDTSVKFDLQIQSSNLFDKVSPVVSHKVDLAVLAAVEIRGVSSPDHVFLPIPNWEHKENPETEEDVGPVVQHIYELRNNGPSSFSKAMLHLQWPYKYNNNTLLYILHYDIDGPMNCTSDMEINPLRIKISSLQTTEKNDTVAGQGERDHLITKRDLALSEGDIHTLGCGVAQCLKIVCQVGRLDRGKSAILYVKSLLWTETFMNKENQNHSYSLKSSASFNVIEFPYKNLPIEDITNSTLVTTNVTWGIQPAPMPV
T1 sequence (P05106 27-718, chain 2 of 2): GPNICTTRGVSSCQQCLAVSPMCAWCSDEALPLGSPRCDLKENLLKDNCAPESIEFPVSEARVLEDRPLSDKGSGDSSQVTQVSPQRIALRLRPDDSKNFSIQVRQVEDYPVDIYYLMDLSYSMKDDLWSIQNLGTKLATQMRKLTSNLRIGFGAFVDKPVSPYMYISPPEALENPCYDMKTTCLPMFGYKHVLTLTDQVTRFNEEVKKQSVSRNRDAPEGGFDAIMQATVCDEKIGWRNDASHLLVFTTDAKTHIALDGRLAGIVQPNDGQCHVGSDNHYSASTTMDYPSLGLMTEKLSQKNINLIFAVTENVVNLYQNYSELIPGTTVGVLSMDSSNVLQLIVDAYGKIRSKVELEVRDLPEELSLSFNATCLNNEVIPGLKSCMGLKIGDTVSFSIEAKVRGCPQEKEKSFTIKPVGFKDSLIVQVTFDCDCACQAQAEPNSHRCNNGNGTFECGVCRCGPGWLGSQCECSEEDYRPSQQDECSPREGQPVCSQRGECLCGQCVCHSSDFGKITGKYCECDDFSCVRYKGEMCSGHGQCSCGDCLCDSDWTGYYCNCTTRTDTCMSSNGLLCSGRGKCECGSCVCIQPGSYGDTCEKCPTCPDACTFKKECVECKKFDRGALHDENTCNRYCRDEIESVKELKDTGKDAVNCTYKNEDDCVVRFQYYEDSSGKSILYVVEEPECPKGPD

B1: β43–63, 20-amino-acid peptide derived from the β chain of human fibrinogen E-fragment (peptide)
peptide: ARPAKAAATQKKVERKAPDA
notes: human fibrinogen β chain, N terminus of the β chain of FgnE, named amino acids 43–63; source: synthetic peptide (GenScript Corporation)
B1: binds.
